Measurements published in patent US20230330254A1 (Regeneron, published 2023).
Read-outs that look alike come from different tables or passages of the source.

B1: REGN8070-M3190 (antibody, human IgG4 S228P, kappa, V domains shown)
VH: QVQLVESGGGVGQPGRSLRLSCAASGFTFSRNAMHWVRQAPGKGLEWVAVISYDGSNKHYADSVKGRFTISRDNSKNTLYLEMNSLRVEDTAVYYCAKGGIPFDYWGQGTLVTVSS
VL: DIVMTQSPLSSPVTLGQPASISCRSSQSLVHFDGNTYLSWLHQRPGQPPRLLIYKISNRFSGVPDRFSGSGAGTDFTLKISRVEPEDVGVYYCMHATQFPYTFGQGTKLEIKR
modifications: linker-payload M3190 (LP11) on Gln 3 of the N-terminal Q-tag LLQGSG
notes: antibody-tethered drug conjugate; also called REGN8070 ATDC
B2: REGN8072-M3190 (antibody, human IgG4 S228P, kappa, V domains shown)
VH: QVQLVESGGGVVQPARSLRLSCAASGFAFSRSAMHWVRQAPGKGLEWVAVISYDGSNKYYTDSVKGRFTISRDNSKNTLYLQMNTLRAEDTALYYCAKMYTTMDSFDYWGQGTLVTVSS
VL: DIQLTQSPSFLSASVGDRVTITCWASQGISSYLAWYQQKPGKAPKLLIYAASTLQSGVPSRFSGSGSGTEFTLTISSLQPEDFALYYCQQLNSYPRTFGQGTKVEIKR
modifications: linker-payload M3190 (LP11) on Gln 3 of the N-terminal Q-tag LLQGSG
notes: antibody-tethered drug conjugate; also called REGN8072 ATDC; anti-GLP1R mAb4-LP11
B3: REGN9267-M3190 (antibody, human IgG4 S228P, kappa)
heavy: not shown
light: EIVLTQSPGTLSLSPGERDTLSCRASQSIAGRYVAWYQQKPGQAPRLLIYGASSRATGIPDRFSGSGSGTDFTLTISRLEPEDFAVYYCQQYGSSPWTFGQGTKVEIKRTVAAPSVFIFPPSDEQLKSGTASVVCLLNNFYPREAKVQWKVDNALQSGNSQESVTEQDSKDSTYSLSSTLTLSKADYEKHKVYACEVTHQGLSSPVTKSFNRGEC
modifications: linker-payload M3190 (LP11) on Gln 3 of the N-terminal Q-tag LLQGSG
notes: antibody-tethered drug conjugate; Q-tag on heavy chain; also called REGN9267 ATDC
B4: REGN9268 (antibody, human IgG4 S228P, kappa)
heavy: not shown
light: LLQGSGEIVLTQSPGTLSLSPGERDTLSCRASQSIAGRYVAWYQQKPGQAPRLLIYGASSRATGIPDRFSGSGSGTDFTLTISRLEPEDFAVYYCQQYGSSPWTFGQGTKVEIKRTVAAPSVFIFPPSDEQLKSGTASVVCLLNNFYPREAKVQWKVDNALQSGNSQESVTEQDSKDSTYSLSSTLTLSKADYEKHKVYACEVTHQGLSSPVTKSFNRGEC
notes: IgG4; Q-tag LLQGSG at the N-terminus of the light chain; also called mAb 17; REGN9268 unconjugated Ab

What was measured:
[1] = target: T1, N-terminal ectodomain of human GLP1R expressed with a myc-myc hexahistidine tag (human, UniProt P43220 24-145, limits assumed); assay: SPR, captured via anti-hFc, 25 C
T1 construct: extracellular domain; also called hGLP1R-MMH; hGLP1R.mmh

[2] = target: T2, full-length cynomolgus GLP1R on HEK293/CRE-Luc/mfGLP1R cells (cynomolgus, UniProt F8V479 24-463); assay: flow cytometry, mfGLP1R cells
T2 construct: whole, on cells

[3] = target: T3, full-length human GLP1R on HEK293/CRE-Luc/hGLP1R cells (human, UniProt P43220 24-463); assay: cell-based or functional assay
[4] = target: T3, full-length human GLP1R on …; assay: flow cytometry, hGLP1R cells
[5] = target: T4, full-length human gastric inhibitory polypeptide receptor on HEK293/CRE-Luc/hGIPR cells (human, UniProt P48546 22-466); assay: cell-based or functional assay
T4 sequence (looked up): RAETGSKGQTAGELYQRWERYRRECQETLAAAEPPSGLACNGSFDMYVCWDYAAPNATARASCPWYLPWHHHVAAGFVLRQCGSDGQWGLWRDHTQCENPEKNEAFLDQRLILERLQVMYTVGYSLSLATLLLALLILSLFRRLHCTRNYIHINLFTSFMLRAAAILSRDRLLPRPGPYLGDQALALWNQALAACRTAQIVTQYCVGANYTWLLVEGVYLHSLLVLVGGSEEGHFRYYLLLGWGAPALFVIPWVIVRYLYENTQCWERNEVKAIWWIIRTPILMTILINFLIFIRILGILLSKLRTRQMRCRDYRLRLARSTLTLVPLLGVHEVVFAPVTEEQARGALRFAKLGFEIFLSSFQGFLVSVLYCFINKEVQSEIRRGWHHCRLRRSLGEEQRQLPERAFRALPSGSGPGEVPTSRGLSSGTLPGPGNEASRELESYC

[6] = target: T5, full-length human glucagon-like peptide 2 receptor on HEK293/CRE-Luc/hGLP2R cells (human, UniProt O95838 1-553); assay: cell-based or functional assay
T5 sequence (looked up): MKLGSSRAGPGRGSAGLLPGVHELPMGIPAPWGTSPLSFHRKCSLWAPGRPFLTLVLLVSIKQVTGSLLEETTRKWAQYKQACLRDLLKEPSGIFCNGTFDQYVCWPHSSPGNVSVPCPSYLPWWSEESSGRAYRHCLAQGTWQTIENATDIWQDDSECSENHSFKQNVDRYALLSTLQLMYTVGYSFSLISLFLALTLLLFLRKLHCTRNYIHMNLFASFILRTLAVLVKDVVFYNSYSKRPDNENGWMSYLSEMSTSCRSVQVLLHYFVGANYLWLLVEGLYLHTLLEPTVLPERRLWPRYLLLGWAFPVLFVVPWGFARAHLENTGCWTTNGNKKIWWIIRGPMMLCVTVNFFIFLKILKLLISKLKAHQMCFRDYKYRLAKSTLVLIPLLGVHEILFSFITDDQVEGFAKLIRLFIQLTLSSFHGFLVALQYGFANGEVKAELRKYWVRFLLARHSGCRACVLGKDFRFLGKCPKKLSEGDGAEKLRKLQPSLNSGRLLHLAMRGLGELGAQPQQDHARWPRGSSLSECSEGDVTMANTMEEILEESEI

[7] = target: full-length human glucagon receptor on HEK293/CRE-Luc/hGCGR cells (human, UniProt P47871 26-477); assay: cell-based or functional assay
[8] = target: T2, full-length cynomolgus GLP1R on …; assay: cell-based or functional assay
[9] = target: T3, full-length human GLP1R on …; assay: cell-based or functional assay; remark: listed apart in the source
[10] = target: T3, full-length human GLP1R on …; assay: flow cytometry, hGLP1R cells; remark: listed apart in the source
[11] = target: T6, full-length mouse GLP1R on HEK293/CRE-Luc/mGLP1R cells (mouse, UniProt O35659 22-463); assay: flow cytometry, mGLP1R cells
T6 construct: whole, on cells
T6 sequence (looked up): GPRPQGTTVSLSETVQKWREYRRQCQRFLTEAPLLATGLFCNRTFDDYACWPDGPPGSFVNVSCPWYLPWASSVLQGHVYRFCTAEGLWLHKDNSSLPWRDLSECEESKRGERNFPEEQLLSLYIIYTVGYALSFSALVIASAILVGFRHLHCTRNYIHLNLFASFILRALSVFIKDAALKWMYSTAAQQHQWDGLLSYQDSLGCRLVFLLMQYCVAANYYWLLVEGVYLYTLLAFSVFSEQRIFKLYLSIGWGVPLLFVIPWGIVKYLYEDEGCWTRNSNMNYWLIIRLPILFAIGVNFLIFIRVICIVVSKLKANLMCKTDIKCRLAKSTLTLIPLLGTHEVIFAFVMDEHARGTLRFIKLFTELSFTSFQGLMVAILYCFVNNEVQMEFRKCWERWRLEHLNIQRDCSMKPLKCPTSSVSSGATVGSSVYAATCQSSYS

[12] = target: T2, full-length cynomolgus GLP1R on …; assay: flow cytometry, mfGLP1R cells; remark: listed apart in the source

Sequence of full-length human glucagon receptor on HEK293/CRE-Luc/hGCGR cells (P47871 26-477): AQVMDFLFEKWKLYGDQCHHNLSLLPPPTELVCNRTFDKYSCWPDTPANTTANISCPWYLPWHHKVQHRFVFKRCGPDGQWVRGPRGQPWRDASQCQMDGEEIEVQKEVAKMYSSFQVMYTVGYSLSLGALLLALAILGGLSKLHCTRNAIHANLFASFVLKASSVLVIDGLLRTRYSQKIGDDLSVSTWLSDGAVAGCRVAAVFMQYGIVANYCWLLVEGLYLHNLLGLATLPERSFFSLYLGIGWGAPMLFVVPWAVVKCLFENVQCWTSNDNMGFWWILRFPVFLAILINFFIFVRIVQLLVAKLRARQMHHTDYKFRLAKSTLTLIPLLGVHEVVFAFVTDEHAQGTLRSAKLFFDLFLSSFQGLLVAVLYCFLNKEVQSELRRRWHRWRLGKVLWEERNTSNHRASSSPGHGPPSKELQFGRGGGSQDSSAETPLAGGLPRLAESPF
T1 sequence (P43220 24-145 limits assumed): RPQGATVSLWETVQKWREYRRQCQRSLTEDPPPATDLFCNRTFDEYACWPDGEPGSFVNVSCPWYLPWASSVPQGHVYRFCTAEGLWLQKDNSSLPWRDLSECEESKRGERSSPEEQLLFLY

Binder | 90 nM hGLP1R.mmh Bound (RU) [1] [RU] | Kd [1] [nM] | koff [1] [s⁻¹] | kon [1] [M⁻¹ s⁻¹] | t1/2 [1] [h] | EC50 [2] [nM] | Flow S/N [2] [fold] | CRE-luc EC50 [3] [nM] | CRE-luc Relative Potency (% M2361 EC50) [3] [%] | CRE-luc Relative Signal:Noise (% M2361) [3] [%] | CRE-luc S/N [3] [fold] | EC50 [4] [nM] | Flow S/N [4] [fold] | CRE-luc EC50 [5] [nM] | CRE-luc EC50 [6] [nM] | CRE-luc EC50 [7] [nM] | CRE-luc EC50 [8] [nM] | CRE-luc EC50 [9] [nM] | other results
B1 | 86.7 | 0.069 | 6.06e-05 | 878000 | 3.17 | 3.71 | 155 | 0.0984 | 16.5 | 112 | 71.8 | 4.39 | 166 | > 200 | > 200 | > 200 | 0.0973 | 0.094 | –
B2 | 77.3 | 0.17 | 0.000297 | 1.74e+06 | 0.65 | 3.39 | 148 | 0.0874 | 18.6 | 125 | 80.7 | 3.88 | 173 | > 200 | > 200 | > 200 | 0.137 | 0.114 | –
B3 | 110 | 0.528 | 0.000186 | 353000 | 1.03 | 4.44 | 212 | 0.0854 | 19 | 107 | 68.9 | 5.08 | 269 | > 200 | > 200 | > 200 | 0.25 | 0.212 | –
B4 | – | – | – | – | – | 0.81 | – | – | – | – | – | – | – | – | – | – | – | – | EC50 [10]: 3.33 nM; EC50 [11]: 45 nM; EC50 [12]: 4.13 nM
